The text below walks through data of PMC5834258, “Selective targeting of collagen IV in the cancer cell microenvironment reduces tumor burden” (Oncotarget, 2018).

One data set addresses T1, GPBP (FLAG-GPBP) (Homo sapiens, UniProt Q9Y5P4).
T1 construct: gene CERT1; FLAG-GPBP
T1 sequence (Q9Y5P4 1-624): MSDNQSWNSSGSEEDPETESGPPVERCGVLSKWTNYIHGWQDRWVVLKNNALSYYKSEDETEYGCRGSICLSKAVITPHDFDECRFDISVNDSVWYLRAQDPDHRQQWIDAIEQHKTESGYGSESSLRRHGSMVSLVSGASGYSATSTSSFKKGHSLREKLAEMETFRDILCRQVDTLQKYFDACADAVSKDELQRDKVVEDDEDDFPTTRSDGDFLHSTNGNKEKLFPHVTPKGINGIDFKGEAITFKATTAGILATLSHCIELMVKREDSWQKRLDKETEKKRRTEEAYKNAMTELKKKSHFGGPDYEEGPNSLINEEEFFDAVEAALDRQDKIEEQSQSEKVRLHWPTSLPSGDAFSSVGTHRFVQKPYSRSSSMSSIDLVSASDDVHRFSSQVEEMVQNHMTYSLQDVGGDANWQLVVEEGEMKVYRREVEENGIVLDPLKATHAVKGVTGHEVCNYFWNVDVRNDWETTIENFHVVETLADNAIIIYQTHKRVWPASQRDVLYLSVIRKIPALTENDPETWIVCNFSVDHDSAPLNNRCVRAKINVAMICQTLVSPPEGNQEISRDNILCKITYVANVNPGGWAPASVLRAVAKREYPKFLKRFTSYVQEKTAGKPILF
The data set is described as follows: […] in vitro autophosphorylation of FLAG-GPBP (Figure 9G). In kind it is biochemical.

Data set [1] deals with T2, Goodpasture antigen-binding protein (GPBP) (Homo sapiens, UniProt Q9Y5P4).
T2 construct: gene CERT1; FLAG-tagged recombinant GPBP multimer (77-kDa GPBP isoform); also native extracellular A427 GPBP
T2 sequence (Q9Y5P4 1-624): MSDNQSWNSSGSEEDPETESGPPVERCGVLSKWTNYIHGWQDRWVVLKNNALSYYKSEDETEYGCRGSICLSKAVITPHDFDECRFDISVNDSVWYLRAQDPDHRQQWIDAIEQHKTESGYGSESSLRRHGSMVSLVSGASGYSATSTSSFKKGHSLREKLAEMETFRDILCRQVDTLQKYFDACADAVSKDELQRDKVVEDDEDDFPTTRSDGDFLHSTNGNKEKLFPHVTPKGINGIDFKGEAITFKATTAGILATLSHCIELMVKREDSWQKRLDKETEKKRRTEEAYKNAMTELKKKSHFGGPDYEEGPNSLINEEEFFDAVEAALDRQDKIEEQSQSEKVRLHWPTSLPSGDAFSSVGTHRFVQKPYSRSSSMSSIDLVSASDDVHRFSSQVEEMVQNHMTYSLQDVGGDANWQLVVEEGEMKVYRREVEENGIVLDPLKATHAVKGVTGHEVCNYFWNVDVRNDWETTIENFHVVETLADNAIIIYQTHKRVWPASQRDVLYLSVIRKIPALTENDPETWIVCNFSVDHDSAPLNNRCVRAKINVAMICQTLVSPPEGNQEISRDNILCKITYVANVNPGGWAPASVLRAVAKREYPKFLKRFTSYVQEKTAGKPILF
The data set is described as follows: […] in vitro autophosphorylation of purified multimeric GPBP at […] T12; FPLC-SEC shift of GPBP oligomers (BSA control unaffected). The format is biochemical.

Data set [2] concerns the molecule itself. In words: SEC; FPLC-SEC on Superdex 200 of FLAG-GPBP purified from Sf9 culture media; calibrators thyroglobulin, aldolase, human serum albumin. For orientation: Size exclusion chromatography separates by hydrodynamic size, large species first.
Data set [3] concerns the molecule itself. The data set is described as follows: SEC; HPLC-SEC on TSKgel G4000SW of purified yeast recombinant FLAG-tagged polypeptides.
Data set [4] concerns the molecule itself. The data set is described as follows: SEC; GPBP affinity-purified from culture media of A427 and A549 cells (scFvN26 column, native elution with peptide PS132), FPLC-SEC on Superdex 200, fractions read by indirect ELISA with anti-GPBP mAb.

With `COc1cccc2c1C(=O)c1c(O)c3c(c(O)c1C2=O)C[C@@](O)(C(=O)CO)C[C@@H]3O[C@H]1C[C@H](N)[C@H](O)[C@H](C)O1` [doxorubicin], the “32P in vitro autophosphorylation of FLAG-GPBP (Figure 9G)” value at GPBP (FLAG-GPBP) was “it was shown the existence of GPBP species sensitive to doxorubicin (Figure 9G)”.

`COc1ccc(-c2ccc(-c3cccc(C)c3)c(C)c2)c(CCC(=O)O)c1` [T12, 3-[4″-methoxy-3,2′-dimethyl-(1,1′;4′,1″)terphenyl-2″-yl]propionic acid]: in data set [1], the “32P in vitro autophosphorylation of purified multimeric GPBP at 50 μM T12; FPLC-” value is “T12 reduced autophosphorylation of recombinant multimer but did not affect the recombinant GPBP trimer autophosphorylation activity”.

B1: FLAG-tagged GPBP (Goodpasture antigen-binding protein), extracellular pool from Sf9 cells (natural protein, human, UniProt Q9Y5P4 1-624, looked up)
chain: MSDNQSWNSSGSEEDPETESGPPVERCGVLSKWTNYIHGWQDRWVVLKNNALSYYKSEDETEYGCRGSICLSKAVITPHDFDECRFDISVNDSVWYLRAQDPDHRQQWIDAIEQHKTESGYGSESSLRRHGSMVSLVSGASGYSATSTSSFKKGHSLREKLAEMETFRDILCRQVDTLQKYFDACADAVSKDELQRDKVVEDDEDDFPTTRSDGDFLHSTNGNKEKLFPHVTPKGINGIDFKGEAITFKATTAGILATLSHCIELMVKREDSWQKRLDKETEKKRRTEEAYKNAMTELKKKSHFGGPDYEEGPNSLINEEEFFDAVEAALDRQDKIEEQSQSEKVRLHWPTSLPSGDAFSSVGTHRFVQKPYSRSSSMSSIDLVSASDDVHRFSSQVEEMVQNHMTYSLQDVGGDANWQLVVEEGEMKVYRREVEENGIVLDPLKATHAVKGVTGHEVCNYFWNVDVRNDWETTIENFHVVETLADNAIIIYQTHKRVWPASQRDVLYLSVIRKIPALTENDPETWIVCNFSVDHDSAPLNNRCVRAKINVAMICQTLVSPPEGNQEISRDNILCKITYVANVNPGGWAPASVLRAVAKREYPKFLKRFTSYVQEKTAGKPILF
notes: Constructs may be described in the extended methods (Supplementary Materials); also called FLAG-GPBP; extracellular GPBP
Turning to B1, the binding result in data set [2] is “binds”.

B2: yeast recombinant FLAG-tagged GPBP-Ala264 (natural protein, human, UniProt Q9Y5P4 1-624, looked up)
chain: MSDNQSWNSSGSEEDPETESGPPVERCGVLSKWTNYIHGWQDRWVVLKNNALSYYKSEDETEYGCRGSICLSKAVITPHDFDECRFDISVNDSVWYLRAQDPDHRQQWIDAIEQHKTESGYGSESSLRRHGSMVSLVSGASGYSATSTSSFKKGHSLREKLAEMETFRDILCRQVDTLQKYFDACADAVSKDELQRDKVVEDDEDDFPTTRSDGDFLHSTNGNKEKLFPHVTPKGINGIDFKGEAITFKATTAGILATLSHCIALMVKREDSWQKRLDKETEKKRRTEEAYKNAMTELKKKSHFGGPDYEEGPNSLINEEEFFDAVEAALDRQDKIEEQSQSEKVRLHWPTSLPSGDAFSSVGTHRFVQKPYSRSSSMSSIDLVSASDDVHRFSSQVEEMVQNHMTYSLQDVGGDANWQLVVEEGEMKVYRREVEENGIVLDPLKATHAVKGVTGHEVCNYFWNVDVRNDWETTIENFHVVETLADNAIIIYQTHKRVWPASQRDVLYLSVIRKIPALTENDPETWIVCNFSVDHDSAPLNNRCVRAKINVAMICQTLVSPPEGNQEISRDNILCKITYVANVNPGGWAPASVLRAVAKREYPKFLKRFTSYVQEKTAGKPILF
notes: Mainly trimeric by SEC, with traces of higher and lower MW materials; source: yeast, purified
For the molecule B2, in data set [3], the “stoichiometry N” value came to 3.

B3: native extracellular GPBP isolated from the culture media of human NSCLC cells (A427, A549) (natural protein, human (endogenous in A427 and A549), UniProt Q9Y5P4 1-624, looked up)
chain: MSDNQSWNSSGSEEDPETESGPPVERCGVLSKWTNYIHGWQDRWVVLKNNALSYYKSEDETEYGCRGSICLSKAVITPHDFDECRFDISVNDSVWYLRAQDPDHRQQWIDAIEQHKTESGYGSESSLRRHGSMVSLVSGASGYSATSTSSFKKGHSLREKLAEMETFRDILCRQVDTLQKYFDACADAVSKDELQRDKVVEDDEDDFPTTRSDGDFLHSTNGNKEKLFPHVTPKGINGIDFKGEAITFKATTAGILATLSHCIELMVKREDSWQKRLDKETEKKRRTEEAYKNAMTELKKKSHFGGPDYEEGPNSLINEEEFFDAVEAALDRQDKIEEQSQSEKVRLHWPTSLPSGDAFSSVGTHRFVQKPYSRSSSMSSIDLVSASDDVHRFSSQVEEMVQNHMTYSLQDVGGDANWQLVVEEGEMKVYRREVEENGIVLDPLKATHAVKGVTGHEVCNYFWNVDVRNDWETTIENFHVVETLADNAIIIYQTHKRVWPASQRDVLYLSVIRKIPALTENDPETWIVCNFSVDHDSAPLNNRCVRAKINVAMICQTLVSPPEGNQEISRDNILCKITYVANVNPGGWAPASVLRAVAKREYPKFLKRFTSYVQEKTAGKPILF
notes: also called native extracellular A427 GPBP; mesenchymal GPBP
As to B3, the binding result in data set [4] is listed as “binds”.

B4: yeast recombinant FLAG-tagged GPBP (natural protein, human, UniProt Q9Y5P4 1-624, looked up)
chain: MSDNQSWNSSGSEEDPETESGPPVERCGVLSKWTNYIHGWQDRWVVLKNNALSYYKSEDETEYGCRGSICLSKAVITPHDFDECRFDISVNDSVWYLRAQDPDHRQQWIDAIEQHKTESGYGSESSLRRHGSMVSLVSGASGYSATSTSSFKKGHSLREKLAEMETFRDILCRQVDTLQKYFDACADAVSKDELQRDKVVEDDEDDFPTTRSDGDFLHSTNGNKEKLFPHVTPKGINGIDFKGEAITFKATTAGILATLSHCIELMVKREDSWQKRLDKETEKKRRTEEAYKNAMTELKKKSHFGGPDYEEGPNSLINEEEFFDAVEAALDRQDKIEEQSQSEKVRLHWPTSLPSGDAFSSVGTHRFVQKPYSRSSSMSSIDLVSASDDVHRFSSQVEEMVQNHMTYSLQDVGGDANWQLVVEEGEMKVYRREVEENGIVLDPLKATHAVKGVTGHEVCNYFWNVDVRNDWETTIENFHVVETLADNAIIIYQTHKRVWPASQRDVLYLSVIRKIPALTENDPETWIVCNFSVDHDSAPLNNRCVRAKINVAMICQTLVSPPEGNQEISRDNILCKITYVANVNPGGWAPASVLRAVAKREYPKFLKRFTSYVQEKTAGKPILF
notes: also called FLAG-GPBP
On to B4, for which the binding result in data set [3] was “binds”.

What is called stoichiometry N is a count of units in the complex or per binding partner.
